Assay results as given in paper PMC11582626 (Nature Communications, 2024).
Numbering of substitutions follows the chain as printed.

How the values were obtained:
[1] = biological target: h5B11-YTE, h5B11 with the YTE mutation (M252Y/S254T/T256E) in the Fc region (human); assay: SPR
[2] = biological target: RSV A2 prefusion-stabilized F glycoprotein variant DS-Cav1 (respiratory syncytial virus strain A2); assay: cryo-EM structure
[3] = biological target: RSV B18537 prefusion-stabilized F glycoprotein variant sc9-10 DS-Cav1 (respiratory syncytial virus strain B18537); assay: cryo-EM structure
[4] = biological target: RSV B18537 prefusion-stabilized F glycoprotein variant DS-Cav1 (respiratory syncytial virus strain B18537)
[5] = biological target: RSV B18537 prefusion-stabilized F glycoprotein variant DS-Cav1 (respiratory syncytial virus strain B18537); assay: SPR
[6] = biological target: T1, RSV B18537 prefusion-stabilized F glycoprotein variant DS-Cav1 (Human respiratory syncytial virus B, …, stabilised); assay: SPR
T1 chain 1: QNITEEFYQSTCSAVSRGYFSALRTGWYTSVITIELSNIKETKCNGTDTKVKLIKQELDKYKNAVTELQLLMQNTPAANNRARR
T1 chain 2: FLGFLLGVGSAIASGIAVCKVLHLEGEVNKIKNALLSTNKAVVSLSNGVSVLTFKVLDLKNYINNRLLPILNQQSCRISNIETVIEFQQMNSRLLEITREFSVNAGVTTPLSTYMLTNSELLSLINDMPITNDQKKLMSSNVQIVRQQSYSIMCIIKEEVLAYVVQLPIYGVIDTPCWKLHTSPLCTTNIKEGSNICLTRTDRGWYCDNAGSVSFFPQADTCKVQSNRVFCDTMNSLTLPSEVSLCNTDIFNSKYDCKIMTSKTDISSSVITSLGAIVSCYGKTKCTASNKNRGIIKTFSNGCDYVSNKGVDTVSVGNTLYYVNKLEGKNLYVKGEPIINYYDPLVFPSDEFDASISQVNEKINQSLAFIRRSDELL

[7] = biological target: RSV B18537 post-fusion F protein (Human respiratory syncytial virus B, …, UniProt P13843); assay: ELISA
[8] = biological target: RSV A2 post-fusion F protein (Human respiratory syncytial virus A, …, UniProt P03420); assay: ELISA
Sequence of RSV A2 post-fusion F protein (P03420 whole entry, looked up, the tested form may be a part): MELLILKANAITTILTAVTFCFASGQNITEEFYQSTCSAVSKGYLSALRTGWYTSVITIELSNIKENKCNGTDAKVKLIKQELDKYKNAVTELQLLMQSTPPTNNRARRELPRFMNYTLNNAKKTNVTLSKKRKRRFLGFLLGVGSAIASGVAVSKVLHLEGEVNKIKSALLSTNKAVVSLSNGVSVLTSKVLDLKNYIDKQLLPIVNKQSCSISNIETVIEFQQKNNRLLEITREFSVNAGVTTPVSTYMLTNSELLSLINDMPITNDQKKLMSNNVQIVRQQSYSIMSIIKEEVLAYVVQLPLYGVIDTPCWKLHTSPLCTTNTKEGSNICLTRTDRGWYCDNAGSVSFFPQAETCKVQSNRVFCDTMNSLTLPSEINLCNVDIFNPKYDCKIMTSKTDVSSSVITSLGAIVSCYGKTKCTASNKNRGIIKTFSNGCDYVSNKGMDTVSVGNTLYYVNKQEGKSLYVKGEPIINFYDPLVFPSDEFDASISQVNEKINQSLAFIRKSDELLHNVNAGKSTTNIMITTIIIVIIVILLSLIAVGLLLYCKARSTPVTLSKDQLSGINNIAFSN

Sequence of RSV B18537 post-fusion F protein (P13843 whole entry, looked up, the tested form may be a part, one chain of several): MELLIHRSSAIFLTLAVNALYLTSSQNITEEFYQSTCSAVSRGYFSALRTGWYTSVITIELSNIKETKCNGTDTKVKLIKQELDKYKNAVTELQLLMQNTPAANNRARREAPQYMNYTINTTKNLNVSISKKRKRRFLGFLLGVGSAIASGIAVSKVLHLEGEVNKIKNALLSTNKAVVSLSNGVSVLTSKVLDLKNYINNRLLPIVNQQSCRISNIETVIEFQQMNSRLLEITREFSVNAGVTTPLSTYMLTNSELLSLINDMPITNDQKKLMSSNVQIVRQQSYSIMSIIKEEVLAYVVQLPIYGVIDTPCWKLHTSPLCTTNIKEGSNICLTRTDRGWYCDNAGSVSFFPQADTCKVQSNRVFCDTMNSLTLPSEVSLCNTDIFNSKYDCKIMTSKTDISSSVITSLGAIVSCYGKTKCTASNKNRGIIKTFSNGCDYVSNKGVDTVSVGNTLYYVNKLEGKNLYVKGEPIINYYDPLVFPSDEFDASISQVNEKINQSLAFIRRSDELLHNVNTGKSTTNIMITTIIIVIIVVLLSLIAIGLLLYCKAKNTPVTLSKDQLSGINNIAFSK

“human neonatal FcR (hFcRn) (from UniProt P55899;P61769) (receptor)” showed a fold increase in affinity over h5B11-WT [1] of 8 fold.

In the case of “RSV A2 prefusion-stabilized F glycoprotein variant DS-Cav1 (natural protein)”, the stoichiometry N [2] is reported as 3.

“RSV B18537 prefusion-stabilized F glycoprotein variant sc9-10 DS-Cav1 (natural protein)” gave a stoichiometry N [3] of 3.

B1: nirsevimab (biosimilar, human IgG1, kappa) (antibody, V domains shown)
VH: QVQLVQSGAEVKKPGSSVMVSCQASGGLLEDYIINWVRQAPGQGPEWMGGIIPVLGTVHYGPKFQGRVTITADESTDTAYMELSSLRSEDTAMYYCATETALVVSETYLPHYFDNWGQGTLVTVSS
VL: DIQMTQSPSSLSAAVGDRVTITCQASQDIVNYLNWYQQKPGKAPKLLIYVASNLETGVPSRFSGSGSGTDFSLTISSLQPEDVATYYCQQYDNLPLTFGGGTKVEIK
B1 was tested, and the plaque reduction neutralization of RSV B18537, IC50 [4] was 0.0285 mg/L.

B2: nirsevimab Fab (Fab, V domains shown)
VH: B1 VH
VL: B1 VL
With B2 the Kd [5] was over 800 nM.

B3: 5B11 Fab (antigen-binding fragment of murine 5B11) (Fab, V domains shown)
VH: QIQLVQSGPELKKPGETVKISCKASGYTFTDYSMHWLKQAPGKGLKWMGWITTETGEPTYADDFKGRFAFSLETSASTAYLQINNLKNEDTGIYFCARYYYGPFYWGQGTLVTVST
VL: DIQMTQSPASLSASVGETVTITCRSSGNIHNFLTWYQQKQGKSPQFLVYNAKTLADGVSSRFSGSGSGTQFSLKINSLQPEDFGIYYCQHFWTTPYTFGGGTKLEIK
B3 showed a Kd [6] of 0.124 nM.

B4: h5B11, humanized version of 5B11 (human IgG1, kappa) (antibody, V domains shown)
VH: B3 VH with E16A, T17S, E73D, N84S, N85S, N88A, I93V, T116S
VL: B3 VL with A9S, E17D, T18R, Q40P, S59P, S72T, K74T, N76S, L104V
B4: no binding [7]; no binding [8].

B5: 5B11, murine monoclonal antibody (mouse IgG2a, kappa) (antibody, V domains shown)
VH: B3 VH
VL: B3 VL
B5: no binding [7]; no binding [8].
